From patent US5763571A, “Inhibiting protein interactions” (The General Hospital Corporation, priority 1995, dated 1998)

Key:
GAP = biological target: T1, GAP (Homo sapiens, UniProt P20936); details: Schaber et al. 1989; cited from earlier work
T1 sequence (P20936 1-1047): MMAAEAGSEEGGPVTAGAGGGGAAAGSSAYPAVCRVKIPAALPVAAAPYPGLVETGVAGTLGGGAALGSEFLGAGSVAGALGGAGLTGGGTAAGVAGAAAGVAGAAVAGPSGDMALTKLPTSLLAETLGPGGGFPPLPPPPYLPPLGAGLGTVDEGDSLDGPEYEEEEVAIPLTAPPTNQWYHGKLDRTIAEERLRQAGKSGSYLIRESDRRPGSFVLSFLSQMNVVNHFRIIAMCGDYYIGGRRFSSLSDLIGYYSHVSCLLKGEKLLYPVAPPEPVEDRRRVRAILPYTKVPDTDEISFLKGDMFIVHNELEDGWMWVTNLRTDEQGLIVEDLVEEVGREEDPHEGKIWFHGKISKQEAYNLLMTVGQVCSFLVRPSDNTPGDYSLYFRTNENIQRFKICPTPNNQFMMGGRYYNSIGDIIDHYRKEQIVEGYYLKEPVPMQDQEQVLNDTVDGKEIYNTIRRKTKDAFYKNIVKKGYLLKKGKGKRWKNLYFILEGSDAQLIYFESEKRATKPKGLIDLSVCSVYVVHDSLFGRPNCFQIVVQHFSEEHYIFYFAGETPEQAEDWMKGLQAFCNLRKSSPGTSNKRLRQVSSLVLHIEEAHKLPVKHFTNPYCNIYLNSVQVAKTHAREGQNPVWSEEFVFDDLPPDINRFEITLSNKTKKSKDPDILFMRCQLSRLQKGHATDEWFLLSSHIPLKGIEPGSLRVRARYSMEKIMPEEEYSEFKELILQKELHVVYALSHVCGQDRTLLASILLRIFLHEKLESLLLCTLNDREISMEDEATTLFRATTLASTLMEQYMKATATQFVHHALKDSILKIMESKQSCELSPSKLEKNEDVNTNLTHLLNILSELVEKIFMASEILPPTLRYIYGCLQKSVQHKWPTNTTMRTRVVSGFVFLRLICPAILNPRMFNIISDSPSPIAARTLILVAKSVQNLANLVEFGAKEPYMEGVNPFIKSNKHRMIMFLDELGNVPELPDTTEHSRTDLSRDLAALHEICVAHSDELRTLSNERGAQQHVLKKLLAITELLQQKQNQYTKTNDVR

[1] = biological target: T2, complex formation between Ras-GTP and GST-Raf(1-257) (Homo sapiens, UniProt P01112+P04049); test: Inhibition of Ras/Raf co-precipitation by synthetic peptides (contact epitope scanning); format: binding
T2 construct: 6xHis (6XH) (C); made in house; host or cells: E. coli

Ras-GTP = biological target: T3, Ras-GTP (Homo sapiens, UniProt P01112); test: Comparative co-precipitation of Ras-GTP-γ-32P by GST-Raf proteins; format: binding; details: 10 pmol GST-Raf protein, single concentration
T3 construct: made in house; host or cells: E. coli

GTPγS-loaded V12GrasH = test: In vitro direct binding of Ras to immobilized GST-Raf (immunoblot); details: immobilized on glutathione agarose, 6 hours 4° C., pan-Ras immunoblot
Protocol: In vitro direct binding experiments were carried out as follows. […] After 6 hours of tumbling at 4° C., the glutathione agarose beads were washed and analyzed for the binding of Ras peptide by sodium dodecyl sulfate-polyacrylamide gel electrophoresis (SDS-PAGE), followed by immunoblotting using a pan-Ras monoclonal antibody-2 (oncogene Science).
The DNA sequences encoding Raf1 amino acid residues 1-257 were generated by the polymerase chain reaction (PCR), using as template the plasmids RSV-C4 and RSV-PM17 (Bruder, J. T., Heidecker, G. & Rapp, U.R. Genes Dev. 6, 545-556 (1992)), which encode the wild-type and C168 →S mutant sequences, respectively. The c-DNA were inserted into pGEX-KG (Guan, K. L. and Dixon J. E., Anal Biochem. 192, 262-267 (1991)) at the EcoR1 and Sall sites, and sequenced to confirm the mutation and proper in-frame insertion. […] About 50% of the recombinant peptides were recovered as full-length fusion proteins. […] The beads were washed 4×and resuspended in buffer A as a 50% suspension. […] Following transfer to polyvinylidene difluoride (PVDF) membrane, the membrane was immunoblotted using pan-Ras monoclonal antibody-2 (Oncogene Science) and detected using the enhanced chemiluminescence technique (Amersham).

[2] = biological target: T4, Ras-GAP stimulation of c-rasH GTPase (Homo sapiens, UniProt P01112); test: Inhibition of Ras-GAP stimulation of c-rasH GTPase; format: biochemical; details: added at a concentration nearly equal to Ras-GAP
T4 construct: made in house; host or cells: Sf9 (baculovirus)
Protocol: The GTPase activity was estimated from the γ^32 P-GTP remaining bound to c-rasH after filtration.
In these experiments, baculoviral recombinant c-rasH was expressed and purified from the membrane pellet of Sf9 cells as described for the baculoviral membrane V12GrasH above. The c-rasH was charged with γ^32 P-GTP by combining 0.1 ml of c-rasH (approximately 10 μg/ml) in Ras storage buffer with 0.3 ml of 60 mM TrisCl, pH 7.5, 5 mM EDTA, 0.7 mg/ml BSA, 1.5 mM DTT, 4 mM ATP, 0.142 μM γ^32 P-GTP (4-6 ×10^5 cpm/pmole) on ice. After 1 hour, 50 μl of 135 mM MgCl2 was added. Loading of c-rasH with α^32 P-GTP was carried out under the same conditions; the α^32 P-GTP-c-rasHwas separated from unbound nucleotide by gel filtration (PD-10) in 25 mM TrisCl, pH 7.5, 5 mM MgCl2, 3 mM ATP, 1 mM DTT, and stored on ice. Baculoviral recombinant, full-length human GAP protein was extracted from Sf9 cells by homogenization in 25 mM TrisCl pH 7.5, 1 mM EGTA, 5 mM MgCl2, 1 mM DTT (GAP buffer) and protease inhibitors. […] GAP was detected using a radiolabeled Ras peptide in a filter binding assay. […] The mixture was filtered through a BA85 nitrocellulose membrane, washed 3×with 4 ml of stop solution, and the filters analyzed for retained ^32 P-labeled nucleotide.

| Complex formation with Ras-GTP-γ-32P by co-precipitation (in words) (Ras-GTP) | Substance | Competition of Ras/GAP interaction (in words), previous study (GAP) | other results |
| --- | --- | --- | --- |
|  | 31-43: Ras peptide of a previous study (Schaber et al.) (EYDPTIEDSYRKQ; UniProt P01112 31-43, looked up, fragment) | did not compete at all |  |
|  | 96-112 peptide: acetylated, C-terminal amide peptide of c-Raf-1 residues 96-112 (Ac-CAVFRLLHEHKGKKARL-NH2) |  | Inhibition of Ras-Raf association by peptide (in words) [1]: little inhibition |
| complexed as well with Ras-GTP | GST-Raf(1-131): GST fusion of c-Raf-1 residues 1-131, unstable |  |  |
|  | GST-Raf(1-257, C168 →S): mutant fragment in which serine replaces cysteine at position 168 |  | Binding of GTPγS-V12GrasH (in words) (GTPγS-loaded V12GrasH): significantly lower amounts of Ras are retained; Inhibition of Ras-GAP stimulation of Ras GTPase (in words) [2]: significantly less inhibition |
| complexed as well with Ras-GTP | GST-Raf(51-149): GST fusion of c-Raf-1 residues 51-149 (SEQ ID NO:7) |  |  |
|  | Ras 23-37: Ras peptide of a previous study (Schaber et al.) (LIQNHFVDEYDPTIE; UniProt P01112 23-37, looked up, fragment) | did not compete at all |  |
